Tested on: MS2 coat protein
Assay: apparent KD of MS2 coat protein; designed switch direction (-1 OFF switch, 1 ON switch): -1; higher = weaker reporter binding
In short: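 Designed RNA switches with common flanks were transcribed on Illumina chips by stalled E. coli RNA polymerase and titrated with SNAP-549-labelled MS2 coat protein, from 0.7 or 1.5 nM doubling to 3 µM, in Tris-HCl pH 7.5 buffer with KCl, MgCl2, BSA, DTT, tRNA and Tween-20. Steps lasted 0.8–1.5 h (lowest) to 10–20 min (highest). Titrations ran without input, with 200 uM small-molecule ligand, or with an oligonucleotide input. Normalised cluster fluorescence was curve-fitted, and apparent KD is the per-design median over clusters.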

[1] = Eterna round: R95, input ligand: FMN 200 uM
[2] = Eterna round: R95, input ligand: microRNA oligo, concentration not stated
[3] = Eterna round: R95, input ligand: none
[4] = input ligand: microRNA oligo, concentration not stated

## AAGUACCGUCACGAUAGUGAUGGUACAACAAGCAAAUAUACAUGAGGAUCACCCAUGUCCUCUUUUGCUCGUCUUGU [Sensor 3] (puzzle: Sensor v3, turn-off variant 2)
[1]
  apparent KD of MS2 coat protein: 798 nM
[2]
  apparent KD of MS2 coat protein: 237 nM
[3]
  apparent KD of MS2 coat protein: 900 nM

## ACGAAACAUGAGGAUCACCCAUGUGAGGAUAUGUAAAUAGUAAACAAAUAAGAAAUAAACAGAAGGCACACAGG [JR_Exclusion1_Sub004] (Eterna round: R96, puzzle: Exclusion 1)
[4]
  apparent KD of MS2 coat protein: 24.3 nM

## GCUUGGCGAGGAUAUACAUGAGGAUCACCCAUGUGAGAGAAUAAAGUGAGGAAGAAAAGUAGAAGGCGCUGAGG [Mat - Exclusion 3 - Mod of Salish D58] (Eterna round: R96, puzzle: Exclusion 3)
Input ligand: FMN 200 uM
  apparent KD of MS2 coat protein: 181 nM
[4]
  apparent KD of MS2 coat protein: 45 nM
Input ligand: none
  apparent KD of MS2 coat protein: 54.5 nM

## UUUCCACAUGAGGAUCACCCAUGUCAGGAUAUUAUAGUUGGCCGAAAGGCGUCAGUGGUAAGAAGGGACGUUGA [Eternabot (L2) Solution 46] (Eterna round: R97, puzzle: Exclusion 1)
Input ligand: FMN 200 uM
  apparent KD of MS2 coat protein: 16.1 nM
Input ligand: none
  apparent KD of MS2 coat protein: 15.8 nM

## UUGCAGUCGUCAGGAUAUAGUAUUACGGCCUUUUAUUUUUUCAUACAUGAGGAUCACCCAUGUCGCUAGAAGGGAUUAUCGAUU [salish99_ExNG2_r04_104] (Eterna round: R96, puzzle: Exclusion NG 2)
Input ligand: FMN 200 uM
  apparent KD of MS2 coat protein: 39.6 nM
[4]
  apparent KD of MS2 coat protein: 31.6 nM
Input ligand: none
  apparent KD of MS2 coat protein: 41.4 nM

## GGAUCGUAUGUGAGGAUAUACCACUGGAUACAGUGGUAGAAGGCACAUGAGGAUCACCCAUGUCCUAUCGAUCC [Fiskers BMX 4 - 54] (puzzle: Brourd's mod of Exclusion 4)
[2]
  apparent KD of MS2 coat protein: 132 nM

## CACCGUUAGUGAGGAUAUCUUACAUGAGGAUCACCCAUGUAAUAAAUGAGAAUUUCGGAUGUAUUAGAGAAGGCACAAAUCGGC [Ostricism 57 - Jieux - Exclusion NG 2] (Eterna round: R96, puzzle: Exclusion NG 2)
[4]
  apparent KD of MS2 coat protein: 17.7 nM

## CAGAGCUUUUACUCGUCUUACAUGAGGAUCACCCAUGUCUCCUAGUGGGUAAAAUAUUAAGAAGAAAUUCUUAAUAA [jun14#1] (Eterna round: R97, puzzle: Sensor, turn-off variant 1)
Input ligand: FMN 200 uM
  apparent KD of MS2 coat protein: 125 nM
Input ligand: none
  apparent KD of MS2 coat protein: 145 nM

## GUAGAGACAGGAUAUACAUGAGGAUCACCCAUGUGAGGAGGAAAAGAGAGGAGAAAGAGUAGAAGGGUCGAAAG [JR_Exclu3_Sub030] (puzzle: Exclusion 3)
[1]
  apparent KD of MS2 coat protein: 41.4 nM
[2]
  apparent KD of MS2 coat protein: 35.7 nM
[3]
  apparent KD of MS2 coat protein: 43 nM

## GCGCGGACAGGAUAUACAUGAGGAUCACCCAUGUGUGAGGCUAACAGUGCCAACUCUGGUAGAAGGGUCCCGGG [EX3 B.19] (Eterna round: R97, puzzle: Exclusion 3)
Input ligand: FMN 200 uM
  apparent KD of MS2 coat protein: 269 nM
Input ligand: none
  apparent KD of MS2 coat protein: 111 nM

## GCAGCAAUCUCAAUUAAAACCACAUGAGGAUCACCCAUGUCUCAGGAUAUGGUCUGGAUUACAGGCCAGAAGGGAGAAAGCUGC [Eli exng3 - 053] (Eterna round: R96, puzzle: Exclusion NG 3)
Input ligand: FMN 200 uM
  apparent KD of MS2 coat protein: 13.5 nM
[4]
  apparent KD of MS2 coat protein: 10.2 nM
Input ligand: none
  apparent KD of MS2 coat protein: 13 nM

## AUAAAGUCAGGAUAUCGAAGUGAGUGGUGGAGGGUAAGGUACGAGAAGGGACAUGAGGAUCACCCAUGUAGGAA [JR_Exclusion4)Sub005] (puzzle: Exclusion 4)
[1]
  apparent KD of MS2 coat protein: 24 nM
[2]
  apparent KD of MS2 coat protein: 27.2 nM
[3]
  apparent KD of MS2 coat protein: 29.5 nM

## CCAUGUUAGCAGGAUAUGCAAUUAUUCUUUUACGCAGAAGGGCUUACAUGAGGAUCACCCAUGUAACAUUUCAU [JR_E6_Sub082] (puzzle: Exclusion 6)
[2]
  apparent KD of MS2 coat protein: 17.2 nM

## ACAUGAGGAUCACCCAUGUGAACAUGAUGGCUGAUGUAGAGCUAGGAUAUGAGUGAAUAUCUAUCUCAGAAGGAGCUUGACUGG [Deportation 47 - Jieux - Exclusion NG 3] (Eterna round: R96, puzzle: Exclusion NG 3)
Input ligand: FMN 200 uM
  apparent KD of MS2 coat protein: 34.1 nM
[4]
  apparent KD of MS2 coat protein: 14.1 nM
Input ligand: none
  apparent KD of MS2 coat protein: 23.2 nM

## CCGGAAAUGCAGGAUAUCGUAUCGGAUACGAUACGAGAAGGGUAUACAUGAGGAUCACCCAUGUGUCCUGCCGG [Fiskers Ex 6 - 54] (puzzle: Exclusion 6)
[2]
  apparent KD of MS2 coat protein: 39.8 nM

## AAUGUUUGAUACCUUUAAUACAUGAGGAUCACCCAUGUUAUCGAGGAUAUGUAGAAGAGAUGAGAACAGAAGGCGAAGUAAGAG [JR_ExcNG3_Sub097] (Eterna round: R96, puzzle: Exclusion NG 3)
Input ligand: FMN 200 uM
  apparent KD of MS2 coat protein: 29.5 nM
[4]
  apparent KD of MS2 coat protein: 10.5 nM
Input ligand: none
  apparent KD of MS2 coat protein: 15.1 nM

## GGUUGACAUGAGGAUCACCCAUGUGAGGAUAUGCGAGAGAAAAAAGUGAGGAAGAAAAGCAGAAGGCGCUGUCG [salish99-ex1_r3_003] (puzzle: Exclusion 1)
[1]
  apparent KD of MS2 coat protein: 29.8 nM
[2]
  apparent KD of MS2 coat protein: 22.4 nM
[3]
  apparent KD of MS2 coat protein: 45.5 nM

## ACAUGUCAUUGAGGAUAUUGCAAACAUGAGGAUCACCCAUGUAUACGGAUGCUCUUACGUGAGUUCGAGAAGGCGAUGUACAUU [Ex NG2 #91] (Eterna round: R96, puzzle: Exclusion NG 2)
Input ligand: FMN 200 uM
  apparent KD of MS2 coat protein: 99.7 nM
[4]
  apparent KD of MS2 coat protein: 39.7 nM
Input ligand: none
  apparent KD of MS2 coat protein: 46.2 nM

## ACGAAACAUGAGGAUCACCCAUGUGAGGAUAUGUAAAUAGUAAACAAAUAAGAAAUAAACAGAAGGCACACAGG [JR_Exclusion1_Sub004] (puzzle: Exclusion 1)
[1]
  apparent KD of MS2 coat protein: 57.2 nM
[2]
  apparent KD of MS2 coat protein: 26.3 nM
[3]
  apparent KD of MS2 coat protein: 28.2 nM

## UUUACAAGCUAUUGAUCCCACAUGAGGAUCACCCAUGUUCCUGGCCGUGAGGCUAGGUAAACAAUUGCUCGUCUUAU [JL TOV1 3.69] (Eterna round: R97, puzzle: Sensor, turn-off variant 1)
Input ligand: FMN 200 uM
  apparent KD of MS2 coat protein: 903 nM
Input ligand: none
  apparent KD of MS2 coat protein: 1370 nM

## UACCGGCGGACCGAAGCUUUUUGCUUGUCUUAUACUACAACAUGAGGAUCACCCAUGUGGUGGUGGUCCGUUGUAGU [JL ViennaUCT Bitein mod 2] (puzzle: Sensor v3, turn-off variant 2)
[1]
  apparent KD of MS2 coat protein: 54.4 nM
[2]
  apparent KD of MS2 coat protein: 17.8 nM
[3]
  apparent KD of MS2 coat protein: 47.3 nM

## GCACGAAGUGUAGGAUAUCUGUGCGAUUAGCUCAGAGAAGGACACAUGAGGAUCACCCAUGUUUUCCGCGGAAGCAAUACGUGC [Eli exng1 - 058] (Eterna round: R96, puzzle: Exclusion NG 1)
Input ligand: FMN 200 uM
  apparent KD of MS2 coat protein: 26.5 nM
[4]
  apparent KD of MS2 coat protein: 13.2 nM
Input ligand: none
  apparent KD of MS2 coat protein: 17.9 nM

## CGGUGCUGAGGAUAUACAUGAGGAUCACCCAUGUGUUCCAGCUAGGUGACUGGCGGAUGUAGAAGGCGGUACUG [JL-ex3-3.39 Brourd mod] (puzzle: Exclusion 3)
[1]
  apparent KD of MS2 coat protein: 245 nM
[2]
  apparent KD of MS2 coat protein: 31.2 nM
[3]
  apparent KD of MS2 coat protein: 64.8 nM

## GCCAGAGCAGGAUAUUCAAUAAUUCACAUGAGGAUCACCCAUGUCCAGCGAAAGCUGGAAGGAGAAGGGCUCUGGC [Fiskers Ex 5 - 3] (puzzle: Exclusion 5)
[2]
  apparent KD of MS2 coat protein: 14.5 nM

## AGUAUGUCAGGAUAUCUCGGGUAGUCCACAACAGCUACCGAAGAGAAGGGACAUGAGGAUCACCCAUGUACCAU [EX4 B.23] (Eterna round: R97, puzzle: Exclusion 4)
Input ligand: FMN 200 uM
  apparent KD of MS2 coat protein: 19.4 nM
Input ligand: none
  apparent KD of MS2 coat protein: 30.6 nM

## AGCUUUUUGUUCGUCUUAUACAUGAGGAUCACCCAUGUAUUGGACCGCAUCGAUAGAUGUAGACCAAGAAGCAUGGG [Omdei Mir OFFv1 C5] (Eterna round: R97, puzzle: Sensor, turn-off variant 1)
Input ligand: FMN 200 uM
  apparent KD of MS2 coat protein: 50.6 nM
Input ligand: none
  apparent KD of MS2 coat protein: 48.2 nM

## GUGUGAAGUUAGGAUAUGAUCGGACAAGAGCCUUCAGAAGGGACCACAUGAGGAUCACCCAUGUUGUCGGUGGC [Eternabot (L1) Solution 41] (Eterna round: R97, puzzle: Exclusion 6)
Input ligand: FMN 200 uM
  apparent KD of MS2 coat protein: 20.5 nM
Input ligand: none
  apparent KD of MS2 coat protein: 18.6 nM

## GAAAAGGUAGGAUAUACGAAAAAAAAGGGUAGAAAAAAAACACAUGAGGAUCACCCAUGUAGAAGGACCAAAAG [salish99_ex2_r3_015] (puzzle: Exclusion 2)
[1]
  apparent KD of MS2 coat protein: 57.8 nM
[2]
  apparent KD of MS2 coat protein: 28.7 nM
[3]
  apparent KD of MS2 coat protein: 27.2 nM

## AAGUGCGAAGGAUAUACAUGAGGAUCACCCAUGUUCACCAAAACACAGGUCUCAGACUGUAGAAGGUCGCACAG [Eternabot (Original) Solution 45] (Eterna round: R97, puzzle: Exclusion 3)
Input ligand: FMN 200 uM
  apparent KD of MS2 coat protein: 605 nM
Input ligand: none
  apparent KD of MS2 coat protein: 59.8 nM

## AAUAUACAUGUAGGAUAUCUGCACGAUUAGUGCAGAGAAGGACAUGAGGAUCACCCAUGUAAUUAAGAUCAAUUAUUAAAUAUU [ENG1/3-B1] (Eterna round: R96, puzzle: Exclusion NG 1)
Input ligand: FMN 200 uM
  apparent KD of MS2 coat protein: 327 nM
[4]
  apparent KD of MS2 coat protein: 46.9 nM
Input ligand: none
  apparent KD of MS2 coat protein: 46.6 nM

## GCAGGCGUCUUGGCUCGUCUUAUUUGGAGAGGAUUGAUAACAUGAGGAUCACCCAUGUGUGUGGGAGAGUUGCAGUG [JR_SV3TOV2_Sub017] (puzzle: Sensor v3, turn-off variant 2)
[1]
  apparent KD of MS2 coat protein: 293 nM
[2]
  apparent KD of MS2 coat protein: 203 nM
[3]
  apparent KD of MS2 coat protein: 374 nM

## GAAUAGAGAGGAUAUGCGAUGUAGGUAGUACGAUAUAUCUGACAUGAGGAUCACCCAUGUAGAAGGCUCAGAUC [EX2 #6] (Eterna round: R97, puzzle: Exclusion 2)
Input ligand: FMN 200 uM
  apparent KD of MS2 coat protein: 33.9 nM
Input ligand: none
  apparent KD of MS2 coat protein: 36.4 nM

## GAAAAGGUAGGAUAUACGAAAAAAAAGGGUAGAAAAAAAACACAUGAGGAUCACCCAUGUAGAAGGACCGAAAG [salish99_ex2_r3_037] (puzzle: Exclusion 2)
[1]
  apparent KD of MS2 coat protein: 58.5 nM
[2]
  apparent KD of MS2 coat protein: 36.8 nM
[3]
  apparent KD of MS2 coat protein: 32.7 nM

## GCAUCCAAUGUGAGGAUAUACCUCUGGAUACAUAGGUAGAAGGCACAUGAGGAUCACCCAUGUUCCAAGGAUGC [Fiskers BMX 4 - 30] (puzzle: Brourd's mod of Exclusion 4)
[1]
  apparent KD of MS2 coat protein: 183 nM
[2]
  apparent KD of MS2 coat protein: 65 nM
[3]
  apparent KD of MS2 coat protein: 82 nM
